{
  "source": "patent CN115043942A",
  "binders": {"B1": {"name": "抗人ROR1抗体UC961 (带有人IgG1) (antibody, from another filing, V domains shown)", "VH": "QVQLQESGPGLVKPSQTLSLTCTVSGYAFTAYNIHWVRQAPGQGLEWMGSFDPYDGGSSYNQKFKDRLTISKDTSKNQVVLTMTNMDPVDTATYYCARGWYYFDYWGHGTLVTVSS", "VL": "DIVMTQTPLSLPVTPGEPASISCRASKSISKYLAWYQQKPGQAPRLLIYSGSTLQSGIPPRFSGSGYGTDFTLTINNIESEDAAYYFCQQHDESPYTFGEGTKVEIK"}},
  "target": "人ROR1 ECD蛋白 (胞外结构域aa30-406) (human) (UniProt Q01973)",
  "sequence (Q01973 30-406)": "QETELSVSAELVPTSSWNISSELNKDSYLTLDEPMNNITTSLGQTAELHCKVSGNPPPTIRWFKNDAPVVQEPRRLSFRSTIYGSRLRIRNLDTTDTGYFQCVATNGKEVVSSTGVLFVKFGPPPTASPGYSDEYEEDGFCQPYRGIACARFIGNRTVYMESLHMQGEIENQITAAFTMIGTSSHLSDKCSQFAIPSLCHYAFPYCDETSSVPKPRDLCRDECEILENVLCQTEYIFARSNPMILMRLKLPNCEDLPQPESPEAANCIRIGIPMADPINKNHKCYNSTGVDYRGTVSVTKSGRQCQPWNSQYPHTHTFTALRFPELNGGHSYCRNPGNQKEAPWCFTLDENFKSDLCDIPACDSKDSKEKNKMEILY",
  "assay": "BLI (Octet ForteBio), antibody on AHC probe, human ROR1 ECD in solution, 1:1 model; mean of two determinations",
  "data": [
    {"binder": "B1", "values": [
      {"measurement": "Kd", "result": 15.8, "unit": "nM"},
      {"measurement": "koff", "result": 0.0137, "unit": "s⁻¹"},
      {"measurement": "kon", "result": 981000, "unit": "M⁻¹ s⁻¹"}
    ]}
  ]
}
